This data set concerns the target TTP (tristetraprolin), GST-TTP (UniProt P26651 1-326). The data set can be described thus: EMSA; 10 mM Tris-HCl pH 7.5, 50 mM KCl, 1 mM DTT, 5% glycerol, 500 ug/ml tRNA, 40 ng probe in 20 ul, 20 min at 4 C (stated for lysate EMSA); 6% native PAGE on ice. The settings on record: protein: commercial; (GST fusion); label: 3' biotin.

Sequence of TTP (tristetraprolin), GST-TTP (P26651 whole entry, the tested form may be a part): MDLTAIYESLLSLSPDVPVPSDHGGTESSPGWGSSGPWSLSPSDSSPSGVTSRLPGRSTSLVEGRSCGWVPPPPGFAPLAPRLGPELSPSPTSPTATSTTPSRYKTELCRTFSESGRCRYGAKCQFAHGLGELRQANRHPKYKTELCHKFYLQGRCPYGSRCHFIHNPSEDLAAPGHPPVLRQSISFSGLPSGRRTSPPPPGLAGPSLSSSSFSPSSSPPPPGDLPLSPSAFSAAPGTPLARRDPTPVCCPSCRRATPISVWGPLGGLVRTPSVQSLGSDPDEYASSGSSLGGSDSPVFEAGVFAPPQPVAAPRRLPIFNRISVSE

B1: P5M (probe 5, AUUUA to AGGGA) (ssRNA)
RNA: GGGAGCAGUUAACCUUCAAGACAUUCCACUUGCUAAAAUUAGGGAUUUUGUAAGGAGAGGUUUUAAUUAAAACAAAAAAAAA
In the case of B1, the binding result is on record as “no binding”.

B2: P6M (probe 6, AUUUA to AGGGA) (ssRNA)
RNA: GGGGUUAAAUUAUGUUCUUAACUGUAACCAGUUUUUUUUUAGGGAUCUCUUUAAUCUUUUUUUAUUAUUAAAAGCAAGUUUC
As for B2, the binding result is recorded as “no binding”.

Values taken from paper PMC4917896, “RNA binding proteins regulate anabolic and catabolic gene expression in chondrocytes”.
